# Results as given in patent publication US12383631B2, “Immune antigen specific IL-18 immunocytokines and uses thereof” (Bright Peak Therapeutics AG, priority 2022, dated 2025).
# Key:
# [1] = molecular target: human neonatal Fc receptor (FcRn) (Homo sapiens, UniProt P55899); test: Human FcRn binding AlphaLISA at pH 6 (Example 9); conditions: AlphaLISA competition
# Experimental: The interaction of the unmodified and of conjugated anti-PD1 antibodies with the human neonatal Fc receptor (FcRn) at pH 6 was measured using the AlphaLISA® Human FcRn Binding Kit (AL3095C) from Perkin Elmer (Schwerzenbach, Switzerland). […] When reference IgG binds to FcRn, donor and acceptor beads come into proximity enabling the transfer of singlet oxygen that trigger a cascade of energy transfer reactions in the acceptor beads, resulting in a sharp peak of light emission at 615 nm. Addition of a free IgG antibodies into the AlphaLISA® mixture creates a competition for the binding of FcRn to the reference antibody resulting in a loss of signal.
# After 90 min at 23° C. in the dark, AlphaLISA® signal was measured on an EnSpire plate reader (Excitation at 680 nm, Emission at 615 nm) from Perkin Elmer (Schwerzenbach, Switzerland).
# PD-1/PD-L1 interaction = PD-1/PD-L1 interaction (Homo sapiens, UniProt Q15116+Q9NZQ7); test: PD-1/PD-L1 Blockade Bioassay, Jurkat NFAT-RE luciferase / PD-L1 aAPC CHO-K1 (Example 7); format: cell-based; conditions: table titled activity in the PD-1/PD-L1 Blockade Cellular Assay; NFAT-RE luminescence, 6 h; read-out: KD FcRn
# Sequence of PD-1/PD-L1 interaction (Q15116 25-288): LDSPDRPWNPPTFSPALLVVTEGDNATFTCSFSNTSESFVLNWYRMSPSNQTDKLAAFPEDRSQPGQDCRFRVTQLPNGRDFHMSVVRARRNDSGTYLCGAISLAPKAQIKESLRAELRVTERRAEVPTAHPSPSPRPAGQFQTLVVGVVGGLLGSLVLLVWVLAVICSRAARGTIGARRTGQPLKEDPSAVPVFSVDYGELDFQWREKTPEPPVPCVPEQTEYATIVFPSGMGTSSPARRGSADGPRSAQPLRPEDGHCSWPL
# Sequence of PD-1/PD-L1 interaction (Q9NZQ7 19-290): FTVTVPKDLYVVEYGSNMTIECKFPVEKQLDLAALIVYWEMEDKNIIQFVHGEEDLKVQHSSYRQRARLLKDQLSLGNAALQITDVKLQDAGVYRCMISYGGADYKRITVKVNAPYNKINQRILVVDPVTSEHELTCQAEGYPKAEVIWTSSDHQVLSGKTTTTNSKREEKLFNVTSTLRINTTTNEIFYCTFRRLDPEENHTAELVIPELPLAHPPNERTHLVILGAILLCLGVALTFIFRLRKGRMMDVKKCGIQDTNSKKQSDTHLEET
# Experimental: For immunocytokine compositions which comprise PD-1 or PD-L1 antibodies or antigen binding fragments, the experiment outlined below is performed to assess the ability of the immunocytokines to interfere with the PD-1/PD-L1 pathway. The assay is the PD-1/PD-L1 Blockade Bioassay from Promega (Cat #J1250, Madison, WI, USA). PD-1/PD-L1 Blockade Bioassay is a bioluminescent cell-based assay based on the co-culture of effector cells with target cells mimicking an immunological synapse. Jurkat T cells expressing human PD-1 and a luciferase reporter driven by a NFAT response element (NFAT-RE) are activated by CHO-K1 cells expressing human PD-L1 and an engineered cell surface protein designed to activate Jurkat cells cognate TCRs. Concurrent interaction PD-1/PD-L1 inhibits TCR signaling and represses NFAT-RE-mediated luminescence. […]
# Briefly, PD-L1 aAPC/CHO-K1 Target cells were plated in white tissue culture 96-wells plates and cultured overnight at 37° C./5% CO2. Test molecules were measured in four-fold serial dilutions starting at 1 μM down to 0.002 nM and pre-incubated on target cells for 10 min before the addition of freshly thawed PD-1 Jurkat effector cells. After 6 h at 37° C./5% CO2, activity NFAT-RE luminescent reporter was evaluated by the addition of Bio-Glo reagent and measured on an ENSPTRE® plate reader (1 sec/well) from Perkin Elmer (Schwerzenbach, Switzerland).
# human PD-L1/B7-H1 = human PD-L1/B7-H1 (Homo sapiens, UniProt Q9NZQ7); test: PD-L1 binding ELISA (Example 5); conditions: coated antibody or immunocytokine, biotinylated human PD-L1/B7-H1
# Sequence of human PD-L1/B7-H1 (Q9NZQ7 19-290): as above
# Experimental: The interaction of the unmodified antibodies and corresponding IL-18 immunocytokines with relevant immune cell associated antigen are measured by ELISA assay. For these studies, Corning high-binding half-area plates (Fisher Scientific, Reinach, Switzerland) are coated overnight at 4° C. with 25 μl of unmodified antibodies corresponding IL-18 immunocytokines at 5 μg/ml in PBS. Plates are then washed four times with 100 μl of PBS-0.02% Tween20. Plate surfaces are blocked with 25 μl of PBS-0.02% Tween20-1% BSA at 37° C. during 1 h. Plates are then washed four times with 100 μl of PBS-0.02% Tween20. […] Plates are then washed four times with 100 μl of PBS-0.02% Tween20. Twenty-five microliters of Streptavidin-Horseradish peroxidase (#RABHRP3, Merck, Buchs, Switzerland) diluted at 1:500 into PBS-0.02% Tween20-0.1% BSA are added to each well and incubated at Room Temperature during 30 min. Plates are then washed four times with 100 μl of PBS-0.02% Tween20. Fifty microliters of TMB substrate reagent (#CL07, Merck, Buchs, Switzerland) are added to each well and incubated at 37° C. during 5 min. After 5 min at 37° C., Horseradish peroxidase reaction is stopped by adding 50 μl/well of 0.5M H2SO4 stop solution. ELISA signal is then measured at 450 nm on an ENSPTRE® plate reader from Perkin Elmer (Schwerzenbach, Switzerland).
Kd [1] [nM],PD-1/PD-L1 blockade potency (PD-1/PD-L1 interaction) [nM],Kd (human PD-L1/B7-H1) [nM],Substance
6.4,0.664,0.443,"Atezolizumab/Tecentriq: anti-PD-L1 antibody, unconjugated reference antibody [reference compound]"
6,5.8,> 100,"LZM-009: anti-PD-1 antibody (VH SEQ ID NO: 376, VL SEQ ID NO: 377), unconjugated reference antibody [reference compound]"
